From paper PMC11746154, “Cryo-EM structures of the Spo11 core complex bound to DNA” (Nature Structural & Molecular Biology, 2023)

B1: Rec102 (subunit of the purified S. cerevisiae Spo11 core complex) (natural protein)
chain: MARDITFLTVFLESCGAVNNDEAGKLLSAWTSTVRIEGPESTDSNSLYIPLLPPGMLKIKLNFKMNDRLVTEEQELFTKLREIVGSSIRFWEEQLFYQVQDVSTIENHVILSLKCTILTDAQISTFISKPRELHTHAKGYPEIYYLSELSTTVNFFSKEGNYVEISQVIPHFNEYFSSLIVSQLEFEYPMVFSMISRLRLKWQQSSLAPISYALTSNSVLLPIMLNMIAQDKSSTTAYQILCRRRGPPIQNFQIFSLPAVTYNK
notes: Rec102, S. cerevisiae
B2: Ski8 (subunit of the purified S. cerevisiae Spo11 core complex) (natural protein)
chain: MSKVFIATANAGKAHDADIFSVSACNSFTVSCSGDGYLKVWDNKLLDNENPKDKSYSHFVHKSGLHHVDVLQAIERDAFELCLVATTSFSGDLLFYRITREDETKKVIFEKLDLLDSDMKKHSFWALKWGASNDRLLSHRLVATDVKGTTYIWKFHPFADESNSLTLNWSPTLELQGTVESPMTPSQFATSVDISERGLIATGFNNGTVQISELSTLRPLYNFESQHSMINNSNSIRSVKFSPQGSLLAIAHDSNSFGCITLYETEFGERIGSLSVPTHSSQASLGEFAHSSWVMSLSFNDSGETLCSAGWDGKLRFWDVKTKERITTLNMHCDDIEIEEDILAVDEHGDSLAEPGVFDVKFLKKGWRSGMGADLNESLCCVCLDRSIRWFREAGGK
notes: Ski8, S. cerevisiae
B3: Rec104 (subunit of the purified S. cerevisiae Spo11 core complex) (natural protein)
chain: MSIEEEDTNKITCTQDFLHQYFVTERVSIQFGLNNKTVKRINKDEFDKAVNCIMSWTNYPKPGLKRTASTYLLSNSFKKSATVSLPFILGDPVCMPKRVESNNNDTCLLYSDTLYDDPLIQRNDQAGDEIEDEFSFTLLRSEVNEIRPISSSSTAQILQSDYSALMYERQASNGSIFQFSSP
notes: Rec104, S. cerevisiae; 182 residues as printed, of which only 9-58 are visible in the structure

Assays:
[1] = molecular target: T1, Spo11 (subunit of the purified S. cerevisiae Spo11 core complex) (S. cerevisiae, UniProt P23179 1-392); experiment: cryo-EM structure; core complex (subunits co-expressed and co-purified, ~0.2 mg/ml) incubated with hairpin DNA (3.7 Å) or gapped DNA (3.3 Å) at 1:2 protein:DNA in 25 mM HEPES-NaOH pH 7.5, 150 mM NaCl, 5 mM MgCl2, 2 mM DTT, 2% glycerol, 1 h on ice; details: both partners purified
T1 construct: Spo11, S. cerevisiae
T1 sequence: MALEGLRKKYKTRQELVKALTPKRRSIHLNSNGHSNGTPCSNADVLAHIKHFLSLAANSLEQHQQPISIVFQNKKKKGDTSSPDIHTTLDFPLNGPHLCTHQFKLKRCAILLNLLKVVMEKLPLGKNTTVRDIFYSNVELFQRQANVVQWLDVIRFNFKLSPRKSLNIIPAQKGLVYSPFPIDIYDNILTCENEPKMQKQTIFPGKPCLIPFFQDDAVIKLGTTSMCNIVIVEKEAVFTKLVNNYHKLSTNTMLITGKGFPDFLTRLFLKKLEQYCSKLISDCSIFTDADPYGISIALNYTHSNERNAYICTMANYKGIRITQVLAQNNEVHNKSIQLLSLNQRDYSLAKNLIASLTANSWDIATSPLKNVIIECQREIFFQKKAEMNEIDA

[2] = molecular target: B1; experiment: as above; details: both partners purified

Row | Binder | stoichiometry N [1] | stoichiometry N [2]
1 | B1 | 1 | 
2 | B2 | 1 | 
3 | B3 | 1 | 1
